Reference: the supplement of paper PMC9170038

Test system: MS2 coat protein
Assay: apparent KD of MS2 coat protein; designed switch direction (-1 OFF switch, 1 ON switch): -1; higher = weaker reporter binding
Summary of the method: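 On Illumina chips, designed RNA switches with common flanks were made by stalled E. coli RNA polymerase. Titrations with SNAP-549-labelled MS2 coat protein, doubling from 0.7 or 1.5 nM to 3 µM, were done with no input, with 200 uM small-molecule ligand, or with an oligonucleotide input. Apparent KD is the median per design over clusters, from curve fits of normalised cluster fluorescence.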

[1] = Eterna round: R95, input ligand: microRNA oligo, concentration not stated
[2] = input ligand: microRNA oligo, concentration not stated

Sequence | apparent KD of MS2 coat protein (input ligand: FMN 200 uM) [nM] | apparent KD of MS2 coat protein (input ligand: none) [nM] | also measured
GUACUACAUGAGGAUCACCCAUGUCAGGAUAUUUGAAUUUCAUCAAAAGAUGAAAUUCGGAGAAGGGACAGUAC [Omei Ex1 A7] (Eterna round: R97, puzzle: Exclusion 1) | 31.1 | 21.7 | –
GUAGAGUAAGGAUAUAGUGAAUAGGAUAGAAUGGUUAGAAACUAGAAGGUACAUGAGGAUCACCCAUGUAAUGU [Excluse me!!!! 21 - Jieux - Exclusion 4] (puzzle: Exclusion 4) | – | – | apparent KD of MS2 coat protein [1]: 20.4 nM
GUAGAGUAAGGAUAUUGUGAAUAGGAUAGAAUGGUUAGAAACAAGAAGGUACAUGAGGAUCACCCAUGUAAUGU [Excluse me!!!! 20 - Jieux - Exclusion 4] (puzzle: Exclusion 4) | – | – | apparent KD of MS2 coat protein [1]: 21.3 nM
GUAGAGUCAGGAUAUACAAGAUCGAUAGAUCGGCGGUCCAUACAUGAGGAUCACCCAUGUAGAAGGGACUCUAC [Mat - Exclusion 2 - Eli Mod - D5] (Eterna round: R97, puzzle: Exclusion 2) | 514 | 27.2 | –
GUAGAGUCAGGAUAUACGAGAUCGAAAGAUCAAAGAUCCUUACAUGAGGAUCACCCAUGUAGAAGGGACUCUAC [Eli x2 4.14] (Eterna round: R97, puzzle: Exclusion 2) | 574 | 37.1 | –
GUAGAGUCAGGAUAUACGGGAUCGAAAGAUCGGCGAUCCAUACAUGAGGAUCACCCAUGUAGAAGGGACUCUAC [Omei mod 10 to Eli's favorate candidate (ch.parushev)] (Eterna round: R97, puzzle: Exclusion 2) | 189 | 22.7 | –
GUAUAACAUGUAGGAUAUGCGUGGCGAAGCUAUGCAGAAGGACAUGAGGAUCACCCAUGUUAUAGCGUCUGCGUACAGAUGCUA [Mat - Exclusion NG 1 - Mod of JL - D93] (Eterna round: R96, puzzle: Exclusion NG 1) | 204 | 24.5 | apparent KD of MS2 coat protein [2]: 26.2 nM
GUAUAUAGUGUGAGGAUAUGCUGGUCCUUGGAUCAGCAGAAGGCACAUGAGGAUCACCCAUGUAGUUUAUUAUU [Mat - Exclusion 4 - JL Mod - D9] (puzzle: Brourd's mod of Exclusion 4) | – | – | apparent KD of MS2 coat protein [1]: 24.1 nM
GUAUCGUGAGGAUAUCAUGAUUGACUUUUGUUUUGUCAGCGUGAGAAGGCACAUGAGGAUCACCCAUGUGAUUA [Ex4 - 3 - 9] (puzzle: Exclusion 4) | – | – | apparent KD of MS2 coat protein [1]: 22.3 nM
GUAUGUUCCUGAGGAUAUCGAGCCAUCGACCGCCGAGAAGGCAGAGACAUGAGGAUCACCCAUGUGAAGUAAUGGCGAUGAGAA [Eternabot solution 13] (Eterna round: R96, puzzle: Exclusion NG 1) | 15.4 | 17 | apparent KD of MS2 coat protein [2]: 10.8 nM
GUCACAUGGACAUAGGAUCACAUGAGGAUCACCCAUGUGACUAACAAGCUUUUUGUUCGUCUUAUGUCCAUGUGAAA [Stov1/15-B2] (Eterna round: R97, puzzle: Sensor, turn-off variant 1) | 15.3 | 11.2 | –
GUCACUAGAGGAUAUACAAUGGUAUAUGAUCCUAGAGACAUACAUGAGGAUCACCCAUGUAGAAGGCUAGUAAU [Exclusion 2 - 6] (puzzle: Exclusion 2) | – | – | apparent KD of MS2 coat protein [1]: 68.7 nM
GUCAGACGAGGAUAUGAUAAUUAAUACAUGAGGAUCACCCAUGUAAUACUGAUCCAUGGAUCAGAAGGCGUCUGAC [E5/4-A4] (Eterna round: R97, puzzle: Exclusion 5) | 42.7 | 17.6 | –
GUCAGCUCGUCAGGAUAUGAACAUGAGGAUCACCCAUGUAAGAUCAAGCUGCUUCGGCAGCAAGUUCAGAAGGGACGAGCUGAC [ENG2/10-B1] (Eterna round: R96, puzzle: Exclusion NG 2) | 161 | 113 | apparent KD of MS2 coat protein [2]: 78.7 nM
GUCAGCUCGUGAGGAUAUACAUGAGGAUCACCCAUGUGAUCAAUAGCAGCUUCGGCUGCAUUAAUGUAGAAGGCACGAGCUGAU [ENG2/5-A2] (Eterna round: R96, puzzle: Exclusion NG 2) | 10.1 | 203 | apparent KD of MS2 coat protein [2]: 166 nM
GUCAGCUCGUGAGGAUAUACAUGCGUGCUUCGGCACGUAUGAUAGAUCACAUGAGGAUCACCCAUGUAGAAGGCACGAGCUGAU [ENG2/4-A2] (Eterna round: R96, puzzle: Exclusion NG 2) | 21.7 | 11.8 | apparent KD of MS2 coat protein [2]: 10.4 nM

Sequence | apparent KD of MS2 coat protein (input ligand: FMN 200 uM) [nM] | apparent KD of MS2 coat protein (input ligand: none) [nM] | also measured
GUCAUCAAACAUGGGUUAAACAUGAGGAUCACCCAUGUAUACAAGUUUUUUGCUCGUCUUAUAAUAAGUUUGAUGAC [Antenna 7 - Jieux - Sensor, turn-off variant 1] (Eterna round: R97, puzzle: Sensor, turn-off variant 1) | 59.9 | 66.8 | –
GUCAUGUUAGGAUAUUUCCCAGCUGAGACUACAGAUUGUAGGAAGAAGGAACAUGAGGAUCACCCAUGUGAAAA [Eternabot (L2) Solution 28] (Eterna round: R97, puzzle: Exclusion 4) | 36.6 | 39 | –
GUCCCGGAAGGAUAUGCAGAGCACGAUCCCGUUAAAGGGCCACAUGAGGAUCACCCAUGUAGAAGGUCCAGGGC [EX2 B.21] (Eterna round: R97, puzzle: Exclusion 2) | 32.8 | 13.1 | –
GUCCUACAUGAGGAUCACCCAUGUGAGGAUAUGCGAUUAGCUGCUAGGUAGUUAGUAUGUAGAAGGCGCAUGAA [EX1 #77] (Eterna round: R97, puzzle: Exclusion 1) | 15.9 | 14.6 | –
GUCCUCUUGACAUGAGGAUCACCCAUGUAUUAUUUGUUAACUGAGGAUAUACUCUUAUUUUUUAUGUAGAAGGCAGAUUUGUUC [JR_ExcNG3_Sub022] (Eterna round: R96, puzzle: Exclusion NG 3) | – | – | apparent KD of MS2 coat protein [2]: 32.1 nM
GUCCUGGAAUAUCAGUCGCACAUGAGGAUCACCCAUGUCAUGGGUAGAUCAAUAAAUAAAGAUACUGCUCGUCUUAU [Cac sensor turnoff var1 sub3] (Eterna round: R97, puzzle: Sensor, turn-off variant 1) | 186 | 409 | –
GUCUACAUGACAUGAGGAUCACCCAUGUGUUAUAUUUUUACUAAGGAUAUAUUUUUAAUGUUGAGAUAGAAGGUAGUUUCGGUC [JR_ExcNG3_Sub093] (Eterna round: R96, puzzle: Exclusion NG 3) | – | – | apparent KD of MS2 coat protein [2]: 32.8 nM
GUCUCACAUGAGGAUCACCCAUGUGAGGAUAUGGUUUCGCUGGCCGUAGCCAGUGGAACCAGAAGGCGCAUGAU [Mat - Exclusion 1 - JL Mod - D3] (Eterna round: R97, puzzle: Exclusion 1) | 24.7 | 23 | –
GUCUUGUCAGGAUAUCUUACAUAACAAUCGUAGUUACAAUUGGAGAAGGGACAUGAGGAUCACCCAUGUUAGCA [tap-tap-tappy36] (Eterna round: R97, puzzle: Exclusion 4) | 26.5 | 26.9 | –
GUGACCAUAGGAUAUACAUGAGGAUCACCCAUGUGCAGGUCGGAAGACCCGCGGUCAUGUAGAAGGAUGUAAUU [EX3 A.23] (Eterna round: R97, puzzle: Exclusion 3) | 18.2 | 16.2 | –
GUGAGGUAAGGAUAUAGUAGUGAAGGUAAGAUAUGAGAAUGCUAGAAGGUACAUGAGGAUCACCCAUGUUCGGG [JR_Exclu4_Sub089] (puzzle: Exclusion 4) | – | – | apparent KD of MS2 coat protein [1]: 173 nM
GUGAGUAGUCAGGAUAUGCUGUACAAAAGUACAGCAGAAGGGACUACAUGAGGAUCACCCAUGUUUACUUCAUG [Omei Ex6 B5] (Eterna round: R97, puzzle: Exclusion 6) | 522 | 609 | –
GUGGAACAAGGAUAUCUAACCUCGGACAUGAGGAUCACCCAUGUAUGUCUCAAGAGACCUAGAGAAGGUGUUCGUG [Eternabot (L1) Solution 32] (Eterna round: R97, puzzle: Exclusion 5) | 50.8 | 30.7 | –
GUGUAACAUGAGGAUCACCCAUGUCAGGAUAUGCGAAUUUCAUCAAAAGAUGAAAUUUGCAGAAGGGACUGUAC [Omei Ex1 A24] (Eterna round: R97, puzzle: Exclusion 1) | 99.2 | 60.9 | –
GUGUAACUACACGGGCUCAACAUGAGGAUCACCCAUGUCAUACACGCAAGCUUUUCGCUUGUCUUAUCUGUCCGUGA [Mainesleed] (puzzle: Sensor v3, turn-off variant 1) | – | – | apparent KD of MS2 coat protein (Eterna round: R95, input ligand: FMN 200 uM): 12.5 nM; apparent KD of MS2 coat protein [1]: 14.2 nM; apparent KD of MS2 coat protein (Eterna round: R95, input ligand: none): 11.3 nM
GUGUACGGAGGAUAUAUAUGGGCAGCAUACGCUGCAGCUUCACAUGAGGAUCACCCAUGUAGAAGGCUGUGCAC [JL-ex2-2.10 Brourd mod] (puzzle: Exclusion 2) | – | – | apparent KD of MS2 coat protein [1]: 19.9 nM
